Data: publication PMC6323846, “Comprehensive investigation of the gene expression system regulated by an Aspergillus oryzae transcription factor XlnR using integrated mining of gSELEX-Seq and microarray data”

T1: MBP-AoXlnR (MBP-XlnR1-183) (Aspergillus oryzae (strain not given for the expression construct; RIB40 used for genomic DNA)) (UniProt Q2UD93)
T1 sequence: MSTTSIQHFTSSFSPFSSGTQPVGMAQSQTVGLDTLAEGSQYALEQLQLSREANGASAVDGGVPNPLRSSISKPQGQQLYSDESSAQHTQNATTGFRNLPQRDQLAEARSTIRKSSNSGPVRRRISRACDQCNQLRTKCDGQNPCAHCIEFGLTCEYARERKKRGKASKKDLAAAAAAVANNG

T2: MBP-AoXlnR (MBP-XlnR1-183) (Aspergillus oryzae (strain  …, UniProt Q2UD93 1-183))
T2 sequence: T1 sequence

B1: egl-363 (dsDNA)
DNA 1: CAACCCGAGGGTCGATCGACTCCGGCATTAGCTGCCCAGCAGGTATACAGCCTTTTTTTTTTTTTTTTTT
DNA 2: AAAAAAAAAAAAAAAAAAGGCTGTATACCTGCTGGGCAGCTAATGCCGGAGTCGATCGACCCTCGGGTTG
B2: egl-242 (dsDNA)
DNA 1: GGAGACTCCTCTCATCTTGCTGGGCTGAAGACTCGGTCAATACCATGATACCTTTTTTTTTTTTTTTTTT
DNA 2: AAAAAAAAAAAAAAAAAAGGTATCATGGTATTGACCGAGTCTTCAGCCCAGCAAGATGAGAGGAGTCTCC
B3: abf-830 (abf-837 in Table S1) (dsDNA)
DNA 1: TTAAACACATGAGACACACTCGCGGCTGAATGGTTTCGGGTTTTAGCCGGCCTTTTTTTTTTTTTTTTTT
DNA 2: AAAAAAAAAAAAAAAAAAGGCCGGCTAAAACCCGAAACCATTCAGCCGCGAGTGTGTCTCATGTGTTTAA
B4: abf-687 (abf-680 in Table S1) (dsDNA)
DNA 1: GCAGAAGCTCTTGCAGATCTGTCGGCTGAAGGTTTGTTTTAGGCCAAATGCCTTTTTTTTTTTTTTTTTT
DNA 2: AAAAAAAAAAAAAAAAAAGGCATTTGGCCTAAAACAAACCTTCAGCCGACAGATCTGCAAGAGCTTCTGC
B5: egl-617 (dsDNA)
DNA 1: GCAGCGGCGAAAGGTGCAGGATGGCTGACGCTCAGTTTAATGAGCAGTGGCCTTTTTTTTTTTTTTTTTT
DNA 2: AAAAAAAAAAAAAAAAAAGGCCACTGCTCATTAAACTGAGCGTCAGCCATCCTGCACCTTTCGCCGCTGC

These molecules were tested against T1, MBP-AoXlnR (MBP-XlnR1-183) (Aspergillus oryzae (strain not given for the expression construct; RIB40 used for genomic DNA)) (assay: BLI). Settings: BLI (BLItz, streptavidin sensors), Kinetics Buffer 10x (Pall-ForteBio; composition and pH not stated), room temperature, DNA immobilized, 1:1 global fit.
For “GGAATTCGGGGTATTAGGCTAAACGTGGCTATCATGGTGAAACAGGCTGAAGAACAGTTCCTGGCAGGTCAAATGGGAATCTAGAGC (double strand) [XRE-WT]”, the Kd was 0.656 µM. Work on XRE-WT yielded a Kd of 0.656 µM. Molecule “CCAGCCAACCTTCAGCTCAGCAATGCATGCCTTTTTCCCTTTTACCCATTTACCCAGGAATAATGGCATCCTCAGGGTTTCAGCATCTGCT (double strand) [xynF1_upstream_1]” has a Kd of 0.311 µM.

These molecules were tested against T2, MBP-AoXlnR (MBP-XlnR1-183) (assay: BLI; BLI (BLItz, streptavidin sensors), Kinetics Buffer 10x (Pall-ForteBio; composition and pH not stated), room temperature, DNA immobilized, 1:1 global fit). Settings: protein: recombinant; label: 5' biotin on bio-polyA strand (complement of strand 1, S14 extended); blunt.
B1 showed a Kd of 0.0687 µM. In the case of B2, the Kd is reported as 0.0406 µM. With B3 the Kd was 0.144 µM. Molecule B4 has a Kd of 0.133 µM. In the case of B5, the Kd is reported as 0.0484 µM.
